In the Immune Epitope Database (IEDB):

Assays:
HLA-A*02:01 [1] = experiment: IEDB peptide-MHC binding, purified MHC/competitive/fluorescence; filed as Kd, often an IC50 or EC50 that approximates it; ≥ and ≤ were set here for values at or beyond the usual limits of such assays; settings: source organism: Human immunodeficiency virus 1
HLA-A*02:03 [2] = experiment: as above; settings: source organism: Human immunodeficiency virus 1
HLA-A*02:06 [3] = experiment: as above; settings: source organism: Human immunodeficiency virus 1
HLA-A*03:01 [4] = experiment: as above; settings: source organism: Human immunodeficiency virus 1
HLA-A*11:01 [5] = experiment: as above; settings: source organism: Human immunodeficiency virus 1
HLA-A*26:01 = experiment: as above; settings: source organism: Human immunodeficiency virus 1
HLA-A*26:03 = experiment: as above; settings: source organism: Human immunodeficiency virus 1
HLA-A*30:01 = experiment: as above; settings: source organism: Human immunodeficiency virus 1
HLA-A*31:01 = experiment: as above; settings: source organism: Human immunodeficiency virus 1
HLA-A*68:02 = experiment: as above; settings: source organism: Human immunodeficiency virus 1
HLA-A*69:01 [6] = experiment: as above; settings: source organism: Human immunodeficiency virus 1
HLA-B*08:01 = experiment: as above; settings: source organism: Human immunodeficiency virus 1
HLA-B*08:02 = experiment: as above; settings: source organism: Human immunodeficiency virus 1
HLA-A*01:01 = experiment: IEDB peptide-MHC binding, purified MHC/direct/fluorescence; filed as Kd, often an IC50 or EC50 that approximates it; ≥ and ≤ were set here for values at or beyond the usual limits of such assays; settings: source organism: Coxiella burnetii
HLA-A*02:01 [7] = experiment: as above; settings: source organism: Coxiella burnetii
HLA-A*02:03 [8] = experiment: as above; settings: source organism: Coxiella burnetii Q321
HLA-A*02:06 [9] = experiment: as above; settings: source organism: Coxiella burnetii Q321
HLA-A*02:11 = experiment: as above; settings: source organism: Coxiella burnetii Q321
HLA-A*02:12 = experiment: as above; settings: source organism: Coxiella burnetii Q321
HLA-A*02:19 = experiment: as above; settings: source organism: Coxiella burnetii Q321
HLA-A*03:01 [10] = experiment: as above; settings: source organism: Coxiella burnetii
HLA-A*11:01 [11] = experiment: as above; settings: source organism: Coxiella burnetii
HLA-A*24:02 = experiment: as above; settings: source organism: Coxiella burnetii
HLA-A*69:01 [12] = experiment: as above; settings: source organism: Coxiella burnetii
HLA-B*07:02 = experiment: as above; settings: source organism: Coxiella burnetii
HLA-B*15:01 = experiment: as above; settings: source organism: Coxiella burnetii
HLA-B*27:05 = experiment: as above; settings: source organism: Coxiella burnetii
HLA-B*40:01 = experiment: as above; settings: source organism: Coxiella burnetii
HLA-B*44:02 = experiment: as above; settings: source organism: Coxiella burnetii
HLA-B*58:01 = experiment: as above; settings: source organism: Coxiella burnetii
HLA-C*08:02 = experiment: as above; settings: source organism: Coxiella burnetii RSA 493
HLA-C*12:03 = experiment: as above; settings: source organism: Coxiella burnetii RSA 493
HLA-A*02:50 = experiment: IEDB peptide-MHC binding, purified MHC/competitive/fluorescence; filed as Kd, often an IC50 or EC50 that approximates it; ≥ and ≤ were set here for values at or beyond the usual limits of such assays; settings: source organism: Coxiella burnetii RSA 493

Which results are given for VLYCVHQRV?
Kd (HLA-A*02:01 [1]): 9.8 nM; Kd (HLA-A*02:03 [2]): 4.7 nM; Kd (HLA-A*02:06 [3]): 0.5 nM; Kd (HLA-A*03:01 [4]): ≥ 20000 nM; Kd (HLA-A*11:01 [5]): 10700 nM; Kd (HLA-A*26:01): ≥ 20000 nM; Kd (HLA-A*26:03): ≥ 20000 nM; Kd (HLA-A*30:01): 1860 nM; Kd (HLA-A*31:01): 11900 nM; Kd (HLA-A*68:02): 223 nM; Kd (HLA-A*69:01 [6]): ≥ 20000 nM; Kd (HLA-B*08:01): ≥ 20000 nM; Kd (HLA-B*08:02): ≥ 20000 nM

Which Kd (HLA-A*01:01) does the source give for YMHGSIHEV here?
The Kd was no less than 20000 nM.

What about the Kd (HLA-A*02:01 [7]) of the same sequence?
Its Kd is 57 nM.

And the Kd (HLA-A*02:03 [8])?
The Kd was 2 nM.

And the Kd (HLA-A*02:06 [9])?
Its Kd is 2 nM.

And the Kd (HLA-A*02:11)?
Its Kd is 2 nM.

And the Kd (HLA-A*02:12)?
Its Kd is 7 nM.

And the Kd (HLA-A*02:19)?
Its Kd is 7 nM.

What about the Kd (HLA-A*03:01 [10]) of the same sequence?
The Kd was no less than 20000 nM.

And the Kd (HLA-A*11:01 [11])?
Its Kd is no less than 20000 nM.

What about the Kd (HLA-A*24:02) of the same sequence?
Its Kd is no less than 20000 nM.

And the Kd (HLA-A*69:01 [12])?
The Kd was 40.7 nM.

What about the Kd (HLA-B*07:02) of the same sequence?
The Kd was no less than 20000 nM.

And the Kd (HLA-B*15:01)?
Its Kd is 118 nM.

What about the Kd (HLA-B*27:05) of the same sequence?
The Kd was no less than 20000 nM.

And the Kd (HLA-B*40:01)?
The Kd was no less than 20000 nM.

And the Kd (HLA-B*44:02)?
Its Kd is no less than 20000 nM.

What about the Kd (HLA-B*58:01) of the same sequence?
The Kd was no less than 20000 nM.

And the Kd (HLA-C*08:02)?
Its Kd is no less than 20000 nM.

What about the Kd (HLA-C*12:03) of the same sequence?
The Kd was 26 nM.

And the Kd (HLA-A*02:50)?
The Kd was no more than 0.1 nM.
